Km for NqrC in the steady-state flavin transfer activity of ApbE (NqrC varied, FAD 1 mM, pH 9.0) data for one substance are collected here from PMC5655446.

For the test, the target named is Vibrio cholerae ApbE (alternative pyrimidine biosynthesis protein), recombinant, without the leader sequence (Vibrio cholerae) (UniProt A5F5Y3).
Chain of Vibrio cholerae ApbE (alternative pyrimidine biosynthesis protein), recombinant, without the leader sequence (Vibrio cholerae) (A5F5Y3 18-334): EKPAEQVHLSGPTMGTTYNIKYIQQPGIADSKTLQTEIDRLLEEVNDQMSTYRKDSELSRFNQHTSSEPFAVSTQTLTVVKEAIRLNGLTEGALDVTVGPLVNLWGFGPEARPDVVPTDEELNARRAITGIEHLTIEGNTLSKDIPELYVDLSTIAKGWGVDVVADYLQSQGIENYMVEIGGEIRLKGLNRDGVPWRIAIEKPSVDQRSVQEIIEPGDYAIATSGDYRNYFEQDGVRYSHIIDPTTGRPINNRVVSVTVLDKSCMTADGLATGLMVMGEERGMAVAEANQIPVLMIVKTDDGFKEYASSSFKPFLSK

Turning to “Vibrio cholerae NqrC (subunit C of Na+-NQR), soluble, without the N-terminal transmembrane helix (domain or fragment)”, the Km for NqrC in the steady-state flavin transfer activity of ApbE (NqrC varied, FAD 1 mM, pH 9.0) was above 100 μM.
